Experiment: yeast display, Sf9 membrane polyspecificity reagent, FACS + sequencing; frameworks hold sequencing errors
Procedure, shortened: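 Using colony PCR, genes from sorted yeast display clones were amplified, then sequenced on MiSeq at 2 × 250 and filtered by CDR length. The clones had been stained with 10% biotinylated, detergent-solubilized Sf9 membrane reagent for 1 hour at 4 °C and sorted by FACS into low and high (top ~1%) gates on anti-HA and streptavidin fluorescence. Polyreactivity labels come from the gate of origin.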

| Sequence | polyreactivity (PSR sort gate) |
| --- | --- |
| QVQLVESGGGLVQAGGSLRLSCAASGITLHYYAMGWYRQAPGKEREFVAAISWTGGSTYYADSVKGRFTISRDTAKNTVYLQMNSLKPEDTAVYYCAAEGGAFRTYYYWGQGTQVTVSS | high polyreactivity |
| QVQLVESGGGLFQAGGSLRLSCAPSGRTFSHYAMGWYRQAPGKERELVAAISWSGGRTYYADSVKGRFTISRYNAKNTVYLQMNSLKPEDTAVYYCATDKVSNRRYDYWGQGTQVTVSS | high polyreactivity |
| QVQIVESGGGLVQAGGSLRLSCAASGSTFQCYAMGWYRQAPGKERQLVAAINKSGGTTYYADSVKGRFTISRDNAKNTVYLQMNSLNPEDTAVYSCATDNPVVYQPCNMDYWGQGTQVTVSS | low polyreactivity |
| QVQLVESGGGLVQAGGSLRLSCAASAITFYDYPMGWYRQAPGKERELVAAITWNGGDTYYADSVKGRFTISRDNAKNTDYLQMNSLKPEDTAVYYCNATRHYFGGFHYEYYYWGQGTQVTVSS | low polyreactivity |
| QVQLVESGGGLVQAGGSLRLSCAASGRTFARNAMGWYRQAPGKERELGAAISSSGGSTYYADSVKGRFTISRDNAKNTVYLQMNSLKPEDTAVYYCDARSRHAYGYWGQGTQVTVSS | high polyreactivity |
| QVQLVETGGGLVQAGGSLRLSCAASGFTIQRYAMGWYRQAPGKEREFVAAITSGGSTYYADSVKGRFTISRDNAKNTVYLQMNSLKPEDTAVYYCATRAVWSSWGRRYDSWGQGTQVTVSS | high polyreactivity |
| QVQLVESGGGLVQAGGSLRLSCAASGSTFHRYALGWYRQAPGKERELVATITSRGGITYYADSVKGRFTISRDNAKNTVYLQMNSLKPEDTAVYYCYRYDYWGQGTQVTVSS | low polyreactivity |
| QVHLVESGGGLVQAGGSLRLSCAASGSTFYYNAMGWYRQAPGKERELDAAITFTGGSTYADSVKGRFTISRDNAKNTVYLQMNSLKPEDTAVYYCAAESLISWRYDYWGQGTQVTVSS | low polyreactivity |
| QVQLVESGGGLVQAGGSLRLSCAASGRTFYVKSMGWYRQAPGKERELVAGISFSDGSTYYADSVKGRFTISRDNAKNTVYLQMNSLKPEDTAVYYCATVGAFDIYYGYGYWGQGTQVTVSS | low polyreactivity |
| QVQLVESGGGLVQAGGSLRLSCGASGRIFGINAMGWYRQAPGKERELVAAITKSGGTTYYADSVKGRFTISRDNAKNTVYLQMNTLKPEDTAVYYCAAKGSVVYQLRYDYWGQGTQVTVSS | high polyreactivity |
| QVQLVESGGGLVQAGGSLRLSCAASGRTFQRNAMGWYRQAPGKERELVAAITSGSRTNYADSVKGRFTISRDNAKNTVFLQMNSLKPEDTAVYYCAADYTWRNNYWGQGTQVTVSS | high polyreactivity |
| QVQLVESGGGLVQAGGSLRLSCAASGSIFRWNAMGWSRQATGKERELVAVINSSGGSTYYADSVKGRFTISRDNAKNTVYLQMNSLKPEDTAVYYCAADVFFYVYEAYLLYYWGQGTQVTVSS | low polyreactivity |
| QVQLVESGVGLVQAGGSLRLSCASSGITFPSYTMGWYRQAPGKERELVATIRNGGSTYYADSVKGRFTISRDNAKNTVYLQMNSLKPEDTAVYYCAAVPLWDYKFFYYLLYDYWGQGTQVTVSS | low polyreactivity |
| QVQLVESGGGLVQAGGSLRISCAASGRIFNSYAMGWYRQAPGKERELVASISTSGGSTYYADSVKGRFTISRDNAKNTVYLQMNSLKPEDTAVYYCARRYYPKFWYTYDSWGQGTQVTVSS | low polyreactivity |
| QVQLVESGGALVQAGGSHRLSCAASGRTFHFNAMGWYRPATGKERELVAAITNSGGRTSYADSVKGRFTISRDNAKNTVYLQMNSMKPEDTAVYYCNVEVTYSSGKYDYWGPGTQVTVSS | low polyreactivity |
| QVQLVESGGGLVQAGGSLRLSCAASGFTFGVYAMGWYRQAPGKERELVAAITRSGSSTYYADSVKGRFTISRDNAKNTVYLQMNSLKPEDTAVYYCNKYKYVSAVQWKVAGDYWGQGTQVTVSS | low polyreactivity |

| Sequence | polyreactivity (PSR sort gate) |
| --- | --- |
| QVQLVESGGGLVQAGGSLRLSCAASGSTFGHYGMGWYRQAPGKERELVAAISYSGGSTSYADSVKGRFTISRDNAKNTVYLQMNSLKPEDTAVYYCATVRKRRYDYWGQGTQVTVSS | low polyreactivity |
| QVQLVESGGGLVQAGGSLRLSCAASGGIFSPNAMGWYRQAPGKERELVAGITFSGGSTYYADSVKGRFTISRDNAKTTVYLQMNSLKPEDTAVYYCNARVPPQGWGPWKAFDYWGQGTQVTVSS | low polyreactivity |
| QVQLEESGGGLVQAGGSLRLSCAASGIIFYRSVMGWYRQAPGKERELVAAITGGGSTYYADSVKGRFTISRDNAKNTVYLQMNSLKPEDTAVYYCNADIRAYTVLTGGYIYDYWGQVTQVTVSS | high polyreactivity |
| QVHLVESVGGLVQAGGSLRLSCAASGRTFHYYAMGWYRQAPGKERELVAGITGGGSTYYADSVKGRFTISRDNAKNTVYLQMNSLKPEDTAVYYCAADRSYYGYGYWGQGTQVTVSS | low polyreactivity |
| QVQLVESGGGLVQAGGSLRLSCAPSGRIFYYYAKGWYRQAPGKERELVAAINSGGSTNYADSVKGRFTISRDNAKNTVYLQMNSLKPEDTAVYYCAADAKLVSEFDYWGQGTQVTVSS | low polyreactivity |
| QVQLVESGGGLVQAGGSLRLSCAASGRIFYRYAMGWYRQAPGKERELVATISRSGGSTNYADSVKGRFTISRDNAKNTVYLQMNSLKPEDTAVYYCNALYLSTRSGDYWGQGTQVTVSS | high polyreactivity |
| QVQLVESGGGLVQAGGSLRLSCAASGRIFRPNTMGWYRQAPGKERELVAAISRSGGSTYYADSVKGRFTISRDNAKNTVYLQMNSLKPEDTAVDYCAKRYGGIVGVGANKYEYWGQGTQVTVAS | high polyreactivity |
| QVQLVESGGGLVQAGGSLRLSCAASGITFTYYAMGWYRQAPGKERELVAAISYSGGSTYYADSVKGRFTISRDNAKITGYLQMNSLKREDTAVYYCATDARDGHDYWGQGTQVTVSS | high polyreactivity |
| QVQLLESGGGLVQAGGSLRLSCAASGSIFNRYAMGWYRQAPGKERELVAAISSTGSTYYADSVKGRFTISRDNAKNTVYLQMNSLKPEDTAVYYCNAEATHDWLRVDTYEDWGQGTQVTVSS | low polyreactivity |
| QVQLVESGGGLVQAGGSLRLSCAASGRTFDYNAMGWYRQAPGKERELVARISNGDSTYADSVKGRFTISRDNAKNTVYLQMNSLKPEDTAVYYCAARQEPGWYPDVWWEYDYWGEGTQVTVSS | low polyreactivity |
| QVQLVESGGGLVQAGGSLRLTCAASGRILGYYAMGWYRPAPGKERELVAAITYSGGSTYYADSVKGRFSISRDNAKNTVYLQMNILKPEDTAVYYCAADKLLLGLYGSTWNDYWGQGTQVTVSS | low polyreactivity |
| QVQLVESGGGLVQAGGSLRLSCAASGIIFNSNAMGWYRQAPGKERELVAAISVSGGSTYYADSVKGRFTISRDNAKNTVYLQMNILKPEDTAVYYCAAVFYYWSLRSYYWGQGTQVTVSS | high polyreactivity |
| QVQLVESGGGLVQAGGSLRLSCASSGSIFTGNVMGWYRQAPGKERELVAAISSRGGNTYYADSVKGRFTISRDNAKNTVYLQMNSLKPEDTAVYYCNKVKYTWYDWGQGTQVTVSS | high polyreactivity |
| QVQLVESGGGLVQAGGSLRLSCAASGLIFYTYAMGWYRQAPGIERELVATISKRDGGTYYADSVKGRFTISRDNAKNTVYLQMNSLKPEDTAVYYCDAERSYSYWAYDYWGQGTQVTVSS | high polyreactivity |
| QVQLVESGGGLVQAGGSLRLSCAASGFTFTYYVMGWYRQAPGKVRELVAAITRGGITDYADSVKGRFTISRDNAKNTVDLQMNSLKPEETAVYYCAAYYSYVLDYDYWGQGTQVTVSS | low polyreactivity |
| QVQLVESGGGLVQAGGSLRLSCAASGFIFWFNDMGWYRQAPGKERELVATISWSDTSTYYADSVKGRFTISRDNAKNTVYLQMTSLKPEDTAVYYCATDGRETCLPEYYWGQGTQVTVSS | low polyreactivity |

Reference: the nanobody polyreactivity screen of Harvey et al. (2022)
